Measurements as given in paper PMC10397247.

Key:
[1] = target: T1, Core_NIII-es_KEKK; assay: two-hybrid library CCmax; details: mean of both orientations;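 further: natural log of median RNA to DNA barcode read ratio; higher means stronger binding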
T1 chain: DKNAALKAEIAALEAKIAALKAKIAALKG

[2] = target: T2, Core_NNIN-es_KKKE; assay: two-hybrid library CCmax; details: mean of both orientations;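 further: natural log of median RNA to DNA barcode read ratio; higher means stronger binding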
T2 chain: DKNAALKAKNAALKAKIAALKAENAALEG

[3] = target: T3, Core_NNIN-es_KKKK; assay: two-hybrid library CCmax; details: mean of both orientations;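 further: natural log of median RNA to DNA barcode read ratio; higher means stronger binding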
T3 chain: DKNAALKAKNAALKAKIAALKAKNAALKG

[4] = target: T4, P11A; assay: two-hybrid library CCNG1;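 further: natural log of median RNA to DNA barcode read ratio; higher means stronger binding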
T4 chain: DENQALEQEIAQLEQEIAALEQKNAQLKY

[5] = target: T5, P5A; assay: two-hybrid library CCNG1
T5 chain: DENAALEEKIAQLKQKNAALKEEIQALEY

[6] = target: T6, P9A; assay: two-hybrid library CCNG1
T6 chain: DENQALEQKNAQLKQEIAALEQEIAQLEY

[7] = target: T7, P2A; assay: two-hybrid library CCNG1
T7 chain: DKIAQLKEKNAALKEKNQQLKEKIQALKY

[8] = target: T8, P7A; assay: two-hybrid library CCNG1
T8 chain: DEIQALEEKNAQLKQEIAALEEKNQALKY

[9] = target: T9, P4A; assay: two-hybrid library CCNG1
T9 chain: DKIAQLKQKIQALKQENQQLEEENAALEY

[10] = target: T10, P10A; assay: two-hybrid library CCNG1
T10 chain: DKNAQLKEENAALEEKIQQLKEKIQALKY

[11] = target: T11, P8A; assay: two-hybrid library CCNG1
T11 chain: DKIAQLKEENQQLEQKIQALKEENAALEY

[12] = target: T12, P1A; assay: two-hybrid library CCNG1
T12 chain: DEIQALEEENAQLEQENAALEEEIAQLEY

[13] = target: T13, P3A; assay: two-hybrid library CCNG1
T13 chain: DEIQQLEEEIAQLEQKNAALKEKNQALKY

[14] = target: T14, P6A; assay: two-hybrid library CCNG1
T14 chain: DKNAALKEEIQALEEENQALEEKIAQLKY

[15] = target: T15, P12A; assay: two-hybrid library CCNG1
T15 chain: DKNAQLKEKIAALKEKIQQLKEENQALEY

[16] = target: T16, 4H56-bA; assay: two-hybrid library CCNG1
T16 chain: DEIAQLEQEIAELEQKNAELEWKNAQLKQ

[17] = target: T17, 4H2162-bA; assay: two-hybrid library CCNG1
T17 chain: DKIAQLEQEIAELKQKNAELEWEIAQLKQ

[18] = target: T18, 4H2444-bA; assay: two-hybrid library CCNG1
T18 chain: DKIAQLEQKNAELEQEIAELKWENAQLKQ

[19] = target: T19, 4H2253-bA; assay: two-hybrid library CCNG1
T19 chain: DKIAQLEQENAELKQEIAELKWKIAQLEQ

[20] = target: T20, 4H2233-bA; assay: two-hybrid library CCNG1
T20 chain: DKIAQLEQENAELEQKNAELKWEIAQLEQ

[21] = target: T21, 4H349-bA; assay: two-hybrid library CCNG1
T21 chain: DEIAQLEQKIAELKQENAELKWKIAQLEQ

[22] = target: T22, 4H2518-bA; assay: two-hybrid library CCNG1
T22 chain: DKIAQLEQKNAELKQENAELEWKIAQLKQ

[23] = target: T23, 4H2859-bA; assay: two-hybrid library CCNG1
T23 chain: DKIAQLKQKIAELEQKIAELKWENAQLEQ

[24] = target: T24, 4H932-bA; assay: two-hybrid library CCNG1
T24 chain: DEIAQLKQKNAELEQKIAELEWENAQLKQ

[25] = target: T25, 4H4073-bN; assay: two-hybrid library CCNG1
T25 chain: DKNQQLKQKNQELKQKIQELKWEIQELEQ

[26] = target: T26, 4H235-bA; assay: two-hybrid library CCNG1
T26 chain: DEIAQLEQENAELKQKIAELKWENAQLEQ

[27] = target: T27, 4H2143-bA; assay: two-hybrid library CCNG1
T27 chain: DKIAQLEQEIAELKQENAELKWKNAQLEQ

[28] = target: T28, 4H949-bA; assay: two-hybrid library CCNG1
T28 chain: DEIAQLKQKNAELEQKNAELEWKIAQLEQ

[29] = target: T29, 4H2931-bA; assay: two-hybrid library CCNG1
T29 chain: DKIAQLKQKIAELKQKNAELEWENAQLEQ

[30] = target: T30, 4H3381-bA; assay: two-hybrid library CCNG1
T30 chain: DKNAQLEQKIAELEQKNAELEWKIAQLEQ

[31] = target: T31, 4H730-bA; assay: two-hybrid library CCNG1
T31 chain: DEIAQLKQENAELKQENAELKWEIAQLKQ

[32] = target: T32, 4H166-bA; assay: two-hybrid library CCNG1
T32 chain: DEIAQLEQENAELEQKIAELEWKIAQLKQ

[33] = target: T33, 4H3364-bA; assay: two-hybrid library CCNG1
T33 chain: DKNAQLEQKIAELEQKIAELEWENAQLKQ

[34] = target: T34, 4H264-bA; assay: two-hybrid library CCNG1
T34 chain: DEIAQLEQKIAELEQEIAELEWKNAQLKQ

[35] = target: T35, 4H2760-bA; assay: two-hybrid library CCNG1
T35 chain: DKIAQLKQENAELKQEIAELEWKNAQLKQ

[36] = target: T36, 4H3297-bA; assay: two-hybrid library CCNG1
T36 chain: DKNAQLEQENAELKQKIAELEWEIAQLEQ

[37] = target: T37, 4H3628-bA; assay: two-hybrid library CCNG1
T37 chain: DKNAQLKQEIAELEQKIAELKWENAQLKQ

[38] = target: T38, 4H2585-bA; assay: two-hybrid library CCNG1
T38 chain: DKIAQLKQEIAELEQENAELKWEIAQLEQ

[39] = target: T39, 4H3041-bA; assay: two-hybrid library CCNG1
T39 chain: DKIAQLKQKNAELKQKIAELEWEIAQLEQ

[40] = target: T40, 4H796-bA; assay: two-hybrid library CCNG1
T40 chain: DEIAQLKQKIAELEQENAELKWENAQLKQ

[41] = target: T41, Core_NIIN-es_KKEK; assay: two-hybrid library CCmax; details: mean of both orientations
T41 chain: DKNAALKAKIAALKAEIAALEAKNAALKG

[42] = target: T42, Core_NNIN-es_KKEK; assay: two-hybrid library CCmax; details: mean of both orientations
T42 chain: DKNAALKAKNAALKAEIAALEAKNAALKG

[43] = target: T43, Core_NNNI-es_KKKK; assay: two-hybrid library CCmax; details: mean of both orientations
T43 chain: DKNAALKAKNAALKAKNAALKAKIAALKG

[44] = target: T44, Core_NNII-es_KKKE; assay: two-hybrid library CCmax; details: mean of both orientations
T44 chain: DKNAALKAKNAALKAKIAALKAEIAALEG

[45] = target: T45, P9mSN; assay: two-hybrid library CCNG1
T45 chain: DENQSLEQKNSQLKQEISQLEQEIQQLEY

[46] = target: T46, P11mSN; assay: two-hybrid library CCNG1
T46 chain: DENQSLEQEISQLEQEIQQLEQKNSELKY

[47] = target: T47, P12mSN; assay: two-hybrid library CCNG1
T47 chain: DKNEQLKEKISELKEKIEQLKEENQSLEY

[48] = target: T48, P6mSN; assay: two-hybrid library CCNG1
T48 chain: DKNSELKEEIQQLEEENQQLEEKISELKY

[49] = target: T49, P7mSN; assay: two-hybrid library CCNG1
T49 chain: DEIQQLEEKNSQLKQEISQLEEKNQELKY

[50] = target: T50, P8mSN; assay: two-hybrid library CCNG1
T50 chain: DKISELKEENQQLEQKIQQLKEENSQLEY

[51] = target: T51, P5mSN; assay: two-hybrid library CCNG1
T51 chain: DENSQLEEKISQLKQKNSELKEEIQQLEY

[52] = target: T52, P2mSN; assay: two-hybrid library CCNG1
T52 chain: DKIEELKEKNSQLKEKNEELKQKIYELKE

[53] = target: T53, P10mSN; assay: two-hybrid library CCNG1
T53 chain: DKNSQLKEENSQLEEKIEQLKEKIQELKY

[54] = target: T54, P4mSN; assay: two-hybrid library CCNG1
T54 chain: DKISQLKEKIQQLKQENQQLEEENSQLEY

[55] = target: T55, P1mSN; assay: two-hybrid library CCNG1
T55 chain: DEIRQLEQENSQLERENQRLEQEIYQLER

[56] = target: T56, P3mSN; assay: two-hybrid library CCNG1
T56 chain: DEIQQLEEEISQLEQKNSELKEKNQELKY

An interaction score [1] of 1.92 was found for DENAALEAKIAALKAEIAALEAEIAALEG [Core_NIII-es_EKEE] in this work.

An interaction score [2] of 2.07 was found for DENAALEAENAALEAEIAALEAKNAALKG [Core_NNIN-es_EEEK] in this work.

An interaction score [3] of 1.83 was found for DENAALEAENAALEAEIAALEAENAALEG [Core_NNIN-es_EEEE] in this work.

An interaction score [4] of 0.405, an interaction score [5] of -0.424 and an interaction score [6] of 2.37 were found for DKNAQLKEENAALEEKIQQLKEKIQALKY [P10A] in this work. The interaction score [7] was -0.904, the interaction score [8] was 1.36 and the interaction score [9] was -0.619. For the same binder, the interaction score [10] was -0.322, the interaction score [11] was -0.507 and the interaction score [12] was 0.349. For the same binder, the interaction score [13] was 0.616, the interaction score [14] was 0.00329 and the interaction score [15] was -0.26.

An interaction score [16] of -0.289, an interaction score [17] of 0.273 and an interaction score [18] of 0.00294 were found for DEIAQLEQENAELEQKIAELEWKIAQLKQ [4H166-bA] in this work. The interaction score [19] was 0.212, the interaction score [20] was 0.472 and the interaction score [21] was -0.678. It also gave an interaction score [22] of 2.14, an interaction score [23] of 1.07 and an interaction score [24] of -0.303. It also gave an interaction score [25] of 1.76, an interaction score [26] of 0.308 and an interaction score [27] of -0.442. It also gave an interaction score [28] of 0.655, an interaction score [29] of 1.56 and an interaction score [30] of 0.0741. It also gave an interaction score [31] of -0.818, an interaction score [32] of 1.79 and an interaction score [33] of -0.668. For the same binder, the interaction score [34] was 1.18, the interaction score [35] was 1.38 and the interaction score [36] was 1.92. For the same binder, the interaction score [37] was -0.111, the interaction score [38] was -0.344 and the interaction score [39] was 1.54. For the same binder, the interaction score [40] was -0.288.

An interaction score [41] of 1.96 was found for DENAALEAEIAALEAKIAALKAENAALEG [Core_NIIN-es_EEKE] in this work.

An interaction score [42] of 2.2 was found for DENAALEAENAALEAKIAALKAENAALEG [Core_NNIN-es_EEKE] in this work.

An interaction score [43] of 2.16 was found for DENAALEAENAALEAENAALEAEIAALEG [Core_NNNI-es_EEEE] in this work.

An interaction score [44] of 2.42 was found for DENAALEAENAALEAEIAALEAKIAALKG [Core_NNII-es_EEEK] in this work.

An interaction score [45] of 0.647, an interaction score [46] of -0.495 and an interaction score [47] of -0.911 were found for DKNSQLKEENSQLEEKIEQLKEKIQELKY [P10mSN] in this work. The interaction score [48] was -0.212, the interaction score [49] was 0.521 and the interaction score [50] was -0.586. The interaction score [51] was -0.891, the interaction score [52] was -1.62 and the interaction score [53] was 0.0645. It also gave an interaction score [54] of -0.959, an interaction score [55] of 0.0169 and an interaction score [56] of -0.696.
